Reference: the Immune Epitope Database (IEDB)

Key:
HLA-B*58:01 = test: IEDB peptide-MHC binding, purified MHC/direct/fluorescence; filed as Kd, often an IC50 or EC50 that approximates it; ≥ and ≤ were set here for values at or beyond the usual limits of such assays
HLA-A*31:01 = test: as above
HLA-A*01:01 = test: as above
HLA-A*26:01 = test: as above
HLA-A*69:01 = test: as above
HLA-B*40:01 = test: as above
HLA-A*24:03 = test: as above
HLA-B*08:01 = test: as above
HLA-A*03:01 [1] = test: as above
HLA-A*11:01 = test: as above
HLA-A*02:01 [2] = test: as above
HLA-B*07:02 = test: as above
HLA-B*15:01 = test: as above
HLA-B*27:05 = test: as above
HLA-B*44:02 = test: as above
HLA-B*48:01 = test: as above
HLA-B*08:02 = test: as above
HLA-B*46:01 [3] = test: as above
HLA-B*57:01 = test: as above
HLA-B*18:01 = test: as above
HLA-A*03:01 [4] = test: IEDB peptide-MHC binding, purified MHC/competitive/fluorescence; filed as Kd, often an IC50 or EC50 that approximates it; ≥ and ≤ were set here for values at or beyond the usual limits of such assays
HLA-A*24:02 = test: IEDB peptide-MHC binding, purified MHC/competitive/fluorescence; ≥ and ≤ were set here for values at or beyond the usual limits of such assays
HLA-A*02:01 [5] = test: as above; settings: source organism: Sudan ebolavirus
HLA-B*46:01 [6] = test: IEDB peptide-MHC binding, purified MHC/competitive/fluorescence; filed as Kd, often an IC50 or EC50 that approximates it; ≥ and ≤ were set here for values at or beyond the usual limits of such assays; settings: source organism: Yellow fever virus
[7] = source organism: Giardia intestinalis
[8] = source organism: Giardia lamblia ATCC 50803
[9] = source organism: Mammarenavirus lassaense
[10] = source organism: Vaccinia virus WR
[11] = source organism: Zaire ebolavirus
[12] = source organism: Yersinia pestis
[13] = source organism: Yersinia pestis CA88-4125
[14] = source organism: Influenza A virus (A/tiger/Thailand/CU-T6/04(H5N1))
[15] = source organism: Influenza A virus(A/swine/Shandong/fZC/2003(H9N2))

GPRRAAWRI
Kd (HLA-B*58:01; [7]): ≥ 20 µM
Kd (HLA-A*31:01; [7]): ≥ 20 µM
Kd (HLA-A*01:01; [7]): ≥ 20 µM
Kd (HLA-A*26:01; [7]): ≥ 20 µM
Kd (HLA-A*69:01; [7]): ≥ 20 µM
Kd (HLA-B*40:01; [7]): ≥ 20 µM
Kd (HLA-A*24:03; [8]): ≥ 20 µM
Kd (HLA-B*08:01; [7]): ≥ 20 µM
Kd (HLA-A*03:01 [1]; [7]): ≥ 20 µM
Kd (HLA-A*11:01; [7]): ≥ 20 µM
Kd (HLA-A*02:01 [2]; [7]): ≥ 20 µM
Kd (HLA-B*07:02; [8]): 0.0617 µM
Kd (HLA-B*15:01; [7]): ≥ 20 µM
Kd (HLA-B*27:05; [7]): ≥ 20 µM
Kd (HLA-B*44:02; [7]): ≥ 20 µM

HQDNLDTVI
Kd (HLA-B*48:01; source organism: Mycobacterium tuberculosis C): 9.15 µM

IASMRRNYF
Kd (HLA-B*08:01; source organism: Influenza A virus (A/camel/Mongolia/1982(H1N1))): 0.401 µM
Kd (HLA-B*08:02; source organism: Influenza A virus (A/Taiwan/2/2006(H1N1))): 2.23 µM

ILNHKFCNL
Kd (HLA-B*48:01; [9]): ≥ 20 µM
Kd (HLA-B*58:01; [9]): ≥ 20 µM
Kd (HLA-A*01:01; [9]): ≥ 20 µM
Kd (HLA-B*46:01 [3]; [9]): ≥ 20 µM
Kd (HLA-B*40:01; [9]): ≥ 20 µM
Kd (HLA-B*08:01; [9]): 0.142 µM
Kd (HLA-A*03:01 [1]; [9]): ≥ 20 µM
Kd (HLA-B*57:01; [9]): ≥ 20 µM
Kd (HLA-B*18:01; [9]): ≥ 20 µM
Kd (HLA-B*07:02; [9]): ≥ 20 µM
Kd (HLA-B*27:05; [9]): ≥ 20 µM
Kd (HLA-B*44:02; [9]): ≥ 20 µM

KKKLRPRWL
Kd (HLA-B*08:02; source organism: dengue virus type 4): ≥ 20 µM

KLSSEQLSH
Kd (HLA-A*03:01 [4]; [8]): 0.0594 µM

KRSVMLIGI
IC50 (HLA-A*24:02; [10]): 9.38 µM

KYVDYMSSL
IC50 (HLA-A*24:02; source organism: West Nile virus): 0.507 µM

LMHNQNALV
IC50 (HLA-A*24:02; source organism: Sudan ebolavirus): ≥ 87 µM
IC50 (HLA-A*02:01 [5]): 1.16 µM

MTATLEDDR
IC50 (HLA-A*24:02; source organism: Variola virus): 14.6 µM

MYRHILRSQ
IC50 (HLA-A*24:02; [11]): 56 µM

QLKSRAAVL
Kd (HLA-B*58:01; [12]): ≥ 20 µM
Kd (HLA-A*31:01; [12]): ≥ 20 µM
Kd (HLA-A*01:01; [12]): ≥ 20 µM
Kd (HLA-B*46:01 [3]; [12]): ≥ 20 µM
Kd (HLA-A*69:01; [12]): ≥ 20 µM
Kd (HLA-B*40:01; [12]): ≥ 20 µM
Kd (HLA-B*08:01; [13]): 0.034 µM
Kd (HLA-A*03:01 [1]; [12]): ≥ 20 µM
Kd (HLA-A*11:01; [12]): ≥ 20 µM
Kd (HLA-B*57:01; [12]): ≥ 20 µM
Kd (HLA-B*18:01; [12]): ≥ 20 µM
Kd (HLA-B*27:05; [12]): ≥ 20 µM
Kd (HLA-B*44:02; [12]): ≥ 20 µM
Kd (HLA-B*08:02; [13]): 0.948 µM

QYQQLREAA
IC50 (HLA-A*24:02; [11]): ≥ 73.9 µM

RIHGLGFCY
Kd (HLA-A*03:01 [4]; source organism: Shigella boydii CDC 3083-94): 0.608 µM

RKKLKPRWL
Kd (HLA-B*08:02; source organism: Dengue virus 2 Thailand/16681/84): ≥ 20 µM

RMKWMMAMR
Kd (HLA-A*03:01 [4]; source organism: Influenza A virus (A/chicken/Fujian/25/00(H9N2))): 0.044 µM

RTKSISSR
Kd (HLA-A*03:01 [4]; source organism: Influenza A virus (A/swine/Quebec/192/81(H1N1))): ≥ 20 µM

RVSSFIRGKK
Kd (HLA-A*03:01 [4]; source organism: Influenza A virus (A/swine/Italy/2/1979(H1N1))): 0.0025 µM

RWLGGILPW
IC50 (HLA-A*24:02; [10]): 0.0111 µM

SGSTSPRML
IC50 (HLA-A*24:02; [11]): ≥ 188 µM

SNSVAQARF
IC50 (HLA-A*24:02; [11]): ≥ 83.6 µM

TYQWIIRNW
Kd (HLA-B*58:01; [14]): ≥ 10 µM
Kd (HLA-A*31:01; [14]): ≥ 20 µM
Kd (HLA-A*01:01; [14]): ≥ 20 µM
Kd (HLA-B*46:01 [3]; [14]): ≥ 20 µM
Kd (HLA-A*26:01; [15]): ≥ 20 µM
Kd (HLA-A*69:01; [14]): ≥ 20 µM
Kd (HLA-B*40:01; [14]): ≥ 20 µM
Kd (HLA-A*24:03; [14]): 0.0025 µM
Kd (HLA-B*08:01; [14]): ≥ 20 µM
Kd (HLA-A*03:01 [1]; [14]): ≥ 20 µM
Kd (HLA-A*11:01; [14]): ≥ 20 µM
Kd (HLA-A*02:01 [2]; [14]): ≥ 20 µM
Kd (HLA-B*07:02; [14]): ≥ 20 µM
Kd (HLA-B*15:01; [14]): ≥ 20 µM
Kd (HLA-B*27:05; [14]): ≥ 20 µM
Kd (HLA-B*44:02; [14]): ≥ 20 µM
Kd (HLA-B*08:02; [15]): ≥ 20 µM

WFYDNDNPY
Kd (HLA-B*46:01 [6]): 1.17 µM
